Laboratory results from patent US20260273045A1.

Biological target: OVA peptide SIINFEKL bound to H-2Kb MHC I on mouse phDC / BMDC (mouse)
Assay: cell-based or functional assay

Which Proliferation of the OT1 CD8 T cells (CFSE dilution), coculture with titrated numbers of OVA mRNA LNP-transduced phDC does the source give for “T cell receptor of OVA-specific OT1 CD8 T cells (C57Bl/6-Tg (TcraTcrb)1100Mjb/J mice)” here?
Its Proliferation of the OT1 CD8 T cells (CFSE dilution), coculture with titrated numbers of OVA mRNA LNP-transduced phDC is < 47%.
